Measurements: patent US20230134571A1 (INTERNATIONAL AIDS VACCINE INITIATIVE, published 2023)

Experiments:
Assay in all cases: cell-based or functional assay
[1] = target: HIV Env, isolate TRP290.2.00_23_6 (HIV)
[2] = target: HIV Env, isolate CAP225.1.06_A2_18 (HIV)
[3] = target: HIV Env, isolate 6631.v3.c10 (HIV)
[4] = target: HIV Env, isolate 20927783 (HIV)
[5] = target: HIV Env, isolate 19707346_E8_C6 (HIV)
[6] = target: HIV Env, isolate 21197826_V1 (HIV)
[7] = target: HIV Env, isolate 20104663_E11_D2 (HIV)
[8] = target: HIV Env, isolate 3514597 (HIV)
[9] = target: HIV Env, isolate 6146.v7.c23 (HIV)
[10] = target: HIV Env, isolate 20258279_V2 (HIV)
[11] = target: HIV Env, isolate 20286961_C1_H8 (HIV)
[12] = target: HIV Env, isolate Ce0665_F2 (HIV)
[13] = target: HIV Env, isolate 705010185 (HIV)
[14] = target: HIV Env, isolate So405_T24_5 (HIV)
[15] = target: HIV Env, isolate So431_C1_1 (HIV)
[16] = target: HIV Env, isolate 1170887.08 (HIV)
[17] = target: HIV Env, isolate CH064.env (HIV)
[18] = target: HIV Env, isolate Me178_G6.16 (HIV)
[19] = target: HIV Env, isolate CA240_A5.5 (HIV)
[20] = target: HIV Env, isolate Ko870_C2_10 (HIV)
[21] = target: HIV Env, isolate CT072_56_7 (HIV)
[22] = target: HIV Env, isolate CAP304.2.00_F6.6 (HIV)
[23] = target: HIV Env, isolate CeCAP210_TA5 (HIV)
[24] = target: HIV Env, isolate 21203310_G7_C3 (HIV)
[25] = target: HIV Env, isolate 3312_D6.2 (HIV)
[26] = target: HIV Env, isolate 569-F1_37_10 (HIV)
[27] = target: HIV Env, isolate 0041.v3.c18 (HIV)
[28] = target: HIV Env, isolate CT966_E1-7 (HIV)
[29] = target: HIV Env, isolate ZM106F.PB9 (HIV)
[30] = target: HIV Env, isolate TRP307.2.00_24_1 (HIV)
[31] = target: HIV Env, isolate 235080_3G7env2(Rev-) (HIV)
[32] = target: HIV Env, isolate CAP308.2.00_E11.35 (HIV)
[33] = target: HIV Env, isolate CAP291.2.00_H2.15 (HIV)
[34] = target: HIV Env, isolate 933.v4.c4 (HIV)
[35] = target: HIV Env, isolate 19252094_A5_G2 (HIV)
[36] = target: HIV Env, isolate CeCAP200_B8a (HIV)

B1: ePGDM9 (antibody, V domains shown)
VH: QAQLVQSGPEVRKPGTSVKVSCKNPGNTLTTYDLHWVRQVPGQGLQWMGWISHEGDKKVIVERFKAKVTIDWDRSTNTAYLQLSGLTSEDTAVYYCAKGSKHRLRDYALYDEDGALNWAVDVDYLANLEFWGQGTAVTVSS
VL: DIVLTQSPLSLSVTPGESASISCKSSQSLIHGDRNNYLAWYVQKPGRSPQLLIDLASERASGVPDRFSGSGSRKDFTLKISRVETEDVGTYYCMQGRESPWTFGQGTKVDIK
IC50 [1]: 0.012 µg/mL | IC80 [1]: 0.06 µg/mL | IC50 [2]: 0.025 µg/mL | IC80 [2]: 0.167 µg/mL | IC50 [3]: > 50 µg/mL | IC80 [3]: > 50 µg/mL | IC50 [4]: 0.005 µg/mL | IC80 [4]: 0.017 µg/mL | IC50 [5]: 0.005 µg/mL | IC80 [5]: 0.014 µg/mL | IC50 [6]: 12.7 µg/mL | IC80 [6]: 34.6 µg/mL | IC50 [7]: < 0.0006 µg/mL | IC80 [7]: 0.001 µg/mL | IC50 [8]: 0.003 µg/mL | IC80 [8]: 0.011 µg/mL | IC50 [9]: 0.019 µg/mL | IC80 [9]: 0.249 µg/mL | IC50 [10]: > 50 µg/mL | IC80 [10]: > 50 µg/mL | IC50 [11]: 0.023 µg/mL | IC80 [11]: > 50 µg/mL | IC50 [12]: 22.4 µg/mL | IC80 [12]: > 50 µg/mL | IC50 [13]: 0.706 µg/mL | IC80 [13]: 2.15 µg/mL | IC50 [14]: 14.3 µg/mL | IC80 [14]: > 50 µg/mL | IC50 [15]: > 50 µg/mL | IC80 [15]: > 50 µg/mL | IC50 [16]: 0.008 µg/mL | IC80 [16]: 0.056 µg/mL | IC50 [17]: 0.333 µg/mL | IC80 [17]: 1.62 µg/mL | IC50 [18]: 0.006 µg/mL | IC80 [18]: 0.031 µg/mL | IC50 [19]: > 50 µg/mL | IC80 [19]: > 50 µg/mL | IC50 [20]: 0.001 µg/mL | IC80 [20]: 0.021 µg/mL | IC50 [21]: 0.002 µg/mL | IC80 [21]: 1.23 µg/mL | IC50 [22]: 0.002 µg/mL | IC80 [22]: 0.013 µg/mL | IC50 [23]: 0.009 µg/mL | IC80 [23]: 0.073 µg/mL | IC50 [24]: 9.94 µg/mL | IC80 [24]: > 50 µg/mL | IC50 [25]: 0.004 µg/mL | IC80 [25]: 0.011 µg/mL | IC50 [26]: > 50 µg/mL | IC80 [26]: > 50 µg/mL | IC50 [27]: < 0.0006 µg/mL | IC80 [27]: 0.001 µg/mL | IC50 [28]: < 0.0006 µg/mL | IC80 [28]: 0.003 µg/mL | IC50 [29]: 0.007 µg/mL | IC80 [29]: 0.024 µg/mL | IC50 [30]: > 50 µg/mL | IC80 [30]: > 50 µg/mL | IC50 [31]: 0.002 µg/mL | IC80 [31]: 0.005 µg/mL | IC50 [32]: 0.001 µg/mL | IC80 [32]: 0.004 µg/mL | IC50 [33]: 0.342 µg/mL | IC80 [33]: 1.1 µg/mL | IC50 [34]: > 50 µg/mL | IC80 [34]: > 50 µg/mL | IC50 [35]: 0.001 µg/mL | IC80 [35]: 0.003 µg/mL | IC50 [36]: 0.003 µg/mL | IC80 [36]: 0.022 µg/mL
